Assay results as given in patent US20210317201A1.
Numbering of substitutions follows the chain as printed. Values joined by “and” are separate entries in the source; they are usually repeats but may differ in a detail not shown here. Identical values can stand only once.

Tests used:
[1] = target: Human IL-23 with linker (human) (UniProt P29460); experiment: SPR, ProteOn XPR36, global 1:1 fit
[2] = target: recombinant human IL-23 (human) (UniProt P29460); experiment: cell-based or functional assay
[3] = target: Human IL-23 no linker (human) (UniProt P29460); experiment: SPR, ProteOn XPR36, global 1:1 fit
[4] = target: cynomologous IL-23 (cynomolgus monkey); experiment: SPR, ProteOn XPR36, global 1:1 fit
[5] = target: natural human IL-23 from activated THP-1 cells (human) (UniProt P29460); experiment: cell-based or functional assay
Sequence of natural human IL-23 from activated THP-1 cells (human) (chain, as listed by the source limits assumed, chain 1 of 2): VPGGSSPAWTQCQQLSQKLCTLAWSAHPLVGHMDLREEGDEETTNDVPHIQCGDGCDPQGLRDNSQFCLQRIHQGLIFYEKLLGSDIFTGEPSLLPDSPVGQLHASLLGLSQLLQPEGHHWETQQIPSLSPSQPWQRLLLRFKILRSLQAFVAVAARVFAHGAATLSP
Sequence of natural human IL-23 from activated THP-1 cells (human) (P29460 23-328 limits assumed, chain 2 of 2): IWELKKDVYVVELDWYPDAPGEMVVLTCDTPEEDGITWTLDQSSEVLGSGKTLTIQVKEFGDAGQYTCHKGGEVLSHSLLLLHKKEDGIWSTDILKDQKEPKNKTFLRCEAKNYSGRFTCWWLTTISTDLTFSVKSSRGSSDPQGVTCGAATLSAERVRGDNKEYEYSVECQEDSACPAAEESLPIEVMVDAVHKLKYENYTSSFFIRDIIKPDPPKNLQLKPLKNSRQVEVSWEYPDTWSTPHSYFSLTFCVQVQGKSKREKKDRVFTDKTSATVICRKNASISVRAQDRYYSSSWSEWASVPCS

Sequence of recombinant human IL-23 (human) (chain, as listed by the source limits assumed, chain 1 of 2): as the sequence (chain, as listed by the source limits assumed, chain 1 of 2) above
Sequence of recombinant human IL-23 (human) (P29460 23-328 limits assumed, chain 2 of 2): as the sequence (P29460 23-328 limits assumed, chain 2 of 2) above
Sequence of Human IL-23 no linker (human) (chain, as listed by the source limits assumed, chain 1 of 2): as the sequence (chain, as listed by the source limits assumed, chain 1 of 2) above
Sequence of Human IL-23 no linker (human) (P29460 23-328 limits assumed, chain 2 of 2): as the sequence (P29460 23-328 limits assumed, chain 2 of 2) above

B1: Antibody B (antibody, human IgG1, kappa, L234A L235A, V domains shown)
VH: QVQLVQSGAEVKKPGSSVKVSCKASGFTFTDQTIHWVRQAPGQGLEWMGYIYPRDDSPKYNENFKGKVTLTADKSTSTAYMELSSLRSEDTAVYYCAIPDRSGYAWFIYWGQGTLVTVSS
VL: DIQMTQSPSSLSASVGDRVTITCKASRDVAIAVAWYQQKPGKVPKLLIYWASTRHTGVPSRFSGSGSRTDFTLTISSLQPEDVADYFCHQYSSYPFTFGSGTKLEIKR
Kd [1]: < 0.001 nM | koff [1]: < 1e-06 s⁻¹ | kon [1]: 356000 M⁻¹ s⁻¹

B2: Antibody D (antibody, human IgG1, kappa, L234A L235A, V domains shown)
VH: B1 VH
VL: B1 VL with I48L, Y49F, S60D, R68G, V83L, F87Y, S100Q
Kd [1]: 0.107 nM | koff [1]: 4.07e-05 s⁻¹ | kon [1]: 382000 M⁻¹ s⁻¹

B3: Antibody 6H12 (disclosed in WO 2007/027714) (antibody, from another filing, V domains shown)
VH: EVHLQQSGPELVKPGASVKMSCKASGYTFNRYLIHWVKQKPGQGLEWIGYINPNNDGTNYNEKFKGKATLTSDKSSSTAYMELSSLTSEDSAVYYCAANWDQAYWGQGTLVTVSA
VL: DIVMTQSPATLSVTPGDRVSLSCRASQSISDYLHWYQQKSHESPRLLIKYTSQSISGIPSRFSGSGSGSDFTLSINSVEPEDVGVYYCQNGHSFPFTFGSGTKLEIKR
IC50, IL-23 stimulated IL-17 production from mouse splenocytes [2]: 1600 pM and 806 pM and 1300 pM | Kd [3]: 0.214 nM | koff [3]: 0.000107 s⁻¹ | kon [3]: 499000 M⁻¹ s⁻¹ | Kd [4]: 0.157 nM | koff [4]: 0.000156 s⁻¹ | kon [4]: 991000 M⁻¹ s⁻¹

B4: antibody C1273 (disclosed in WO 2007/005955) (antibody, from another filing, V domains shown)
VH: DVNLVESGGGLVKPGGSLKLSCAASGFTFSSYTMSWVRQTPEKRLEWVATISSGGTYTYYPDSVKGRFTISRDNAKNTLYLQMSSLKSEDTAMFYCTRDNHAYDRGPFFDYWGQGATLTVSS
VL: DIVMSQSPSSLVVSVGEKVTMSCKSSQNLFYRSNQKNHLAWYQQKPGQSPTLLIYWTSTRESGVPDRFTGSGSGTDFTLTISRVKAEDLAVYYCQQYYSYPPTFGGGTKLEIK
IC50, IL-23 induced STAT3 phosphorylation in human DB cells (phospho-STAT3 ELISA) [2]: 163 pM and 438 pM | IC50, IL-23 stimulated IL-17 production from mouse splenocytes [5]: 93 pM and 44 pM
